Test results reported in PMC13598245.
pKd: −log10 of the molar value. Blank lines part the entries; values can stand above or below the substance they belong to.

What was measured:
[1] = target: GST-tagged 14-3-3η (coexpressed with MAST1^DK) (UniProt Q04917); test: SEC; complex coexpressed in Sf9, affinity-purified by the GST tag of 14-3-3η, then analytical SEC (Superdex 200 Increase 3.2/300, 50 mM HEPES pH 7.4, 150 mM NaCl, 1 mM TCEP, 4 °C); Coomassie SDS-PAGE of fractions with gel densitometry
[2] = target: GST-tagged 14-3-3η (coexpressed with MAST1^DK) (UniProt Q04917); test: cross-linking + other: mass photometry; complex stabilised by glutaraldehyde cross-linking, then mass photometry (25 to 50 nM, 50 mM HEPES pH 7.4, 150 mM NaCl, 1 mM TCEP)
[3] = target: 14-3-3η (purified, recombinant) (UniProt Q04917); test: SEC; complex formed in vitro: equimolar MAST1^D p-S90 and 14-3-3η, 30 min at room temperature, then analytical SEC (Superdex 200 Increase 3.2/300, 50 mM HEPES pH 7.4, 150 mM NaCl, 1 mM TCEP, 4 °C; 50 μL of 30 μM); Coomassie SDS-PAGE of fractions with gel densitometry
[4] = target: 14-3-3η (purified, recombinant) (UniProt Q04917); test: cross-linking + other: mass photometry; complex stabilised by glutaraldehyde cross-linking, then mass photometry (25 to 50 nM, 50 mM HEPES pH 7.4, 150 mM NaCl, 1 mM TCEP)
[5] = target: 14-3-3η (purified recombinant) (UniProt P68510); test: fluorescence anisotropy, FITC peptide; settings: reference: unphosphorylated peptide …
14-3-3η (endogenous) = 14-3-3η (endogenous) (UniProt Q04917); test: GFP-Trap affinity purification, mass spectrometry; settings: sites S90
[6] = target: MAST1^DK ΔS90 ΔS161 (Mus musculus); test: FP
Chain of MAST1^DK ΔS90 ΔS161 (Mus musculus) (Q9R1L5 whole entry S90del/S161del): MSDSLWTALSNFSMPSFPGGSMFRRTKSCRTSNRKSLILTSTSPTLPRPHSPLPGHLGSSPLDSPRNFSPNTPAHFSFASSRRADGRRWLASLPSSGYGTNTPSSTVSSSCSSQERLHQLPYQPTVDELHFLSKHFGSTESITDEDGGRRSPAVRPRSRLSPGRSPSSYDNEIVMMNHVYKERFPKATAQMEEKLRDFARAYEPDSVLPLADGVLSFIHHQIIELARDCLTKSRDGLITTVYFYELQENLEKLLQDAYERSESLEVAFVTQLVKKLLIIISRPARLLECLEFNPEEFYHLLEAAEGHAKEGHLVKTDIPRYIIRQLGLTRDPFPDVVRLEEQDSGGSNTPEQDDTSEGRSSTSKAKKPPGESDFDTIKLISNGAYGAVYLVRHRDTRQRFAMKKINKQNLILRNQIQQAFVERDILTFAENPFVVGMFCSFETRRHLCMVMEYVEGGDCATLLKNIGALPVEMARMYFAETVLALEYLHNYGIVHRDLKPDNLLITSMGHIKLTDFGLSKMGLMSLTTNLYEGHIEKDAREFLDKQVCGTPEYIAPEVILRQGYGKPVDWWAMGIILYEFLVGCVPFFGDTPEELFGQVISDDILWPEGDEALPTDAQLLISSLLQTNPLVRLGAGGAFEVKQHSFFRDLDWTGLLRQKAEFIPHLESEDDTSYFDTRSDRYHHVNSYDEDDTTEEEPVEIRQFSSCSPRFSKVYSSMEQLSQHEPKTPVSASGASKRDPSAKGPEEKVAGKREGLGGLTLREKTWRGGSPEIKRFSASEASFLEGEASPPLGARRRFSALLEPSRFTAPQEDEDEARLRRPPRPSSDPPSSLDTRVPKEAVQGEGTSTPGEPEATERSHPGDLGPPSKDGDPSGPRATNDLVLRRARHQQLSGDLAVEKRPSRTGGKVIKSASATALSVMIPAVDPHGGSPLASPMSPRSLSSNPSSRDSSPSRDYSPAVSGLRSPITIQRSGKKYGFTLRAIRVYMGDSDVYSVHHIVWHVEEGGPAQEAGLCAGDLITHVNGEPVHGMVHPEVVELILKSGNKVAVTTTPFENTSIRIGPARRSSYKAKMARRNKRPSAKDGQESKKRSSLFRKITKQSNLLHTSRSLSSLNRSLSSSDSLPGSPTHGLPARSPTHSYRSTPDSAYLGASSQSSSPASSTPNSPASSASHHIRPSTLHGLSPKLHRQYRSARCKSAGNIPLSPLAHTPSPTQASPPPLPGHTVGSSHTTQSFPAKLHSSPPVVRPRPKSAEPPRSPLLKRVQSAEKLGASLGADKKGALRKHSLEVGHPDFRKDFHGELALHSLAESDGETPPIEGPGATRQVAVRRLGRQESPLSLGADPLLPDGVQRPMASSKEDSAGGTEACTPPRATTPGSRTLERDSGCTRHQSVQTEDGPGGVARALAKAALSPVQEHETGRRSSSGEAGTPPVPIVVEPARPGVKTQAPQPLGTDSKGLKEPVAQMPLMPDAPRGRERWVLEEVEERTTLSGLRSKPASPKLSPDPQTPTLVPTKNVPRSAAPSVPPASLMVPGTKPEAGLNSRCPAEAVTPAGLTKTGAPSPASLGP

Chain of 14-3-3η (purified, recombinant) (Q04917 whole entry): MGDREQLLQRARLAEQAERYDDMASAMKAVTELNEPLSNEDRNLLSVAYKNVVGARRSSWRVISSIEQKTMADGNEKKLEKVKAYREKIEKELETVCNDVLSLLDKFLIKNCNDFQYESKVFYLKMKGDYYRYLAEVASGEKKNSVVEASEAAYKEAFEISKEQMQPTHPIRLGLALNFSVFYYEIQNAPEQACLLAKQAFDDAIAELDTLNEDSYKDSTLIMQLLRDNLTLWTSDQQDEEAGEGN
Chain of GST-tagged 14-3-3η (coexpressed with MAST1^DK) (Q04917 whole entry): as above

Substance: MAST1 85-97 (from UniProt Q9R1L5) p-S90 peptide
binding against the reference ([5]; sites S90): gained

Substance: MAST1 156-168 (from UniProt Q9R1L5) p-S161 peptide
binding against the reference ([5]; sites S161): gained

Substance: MAST1^153-166 WT
pKd [6]: 2.93

Substance: MAST1 MAST1DKP (from UniProt Q9R1L5) S90A
binding against the reference (14-3-3η (endogenous); reference: wild type): weaker

Results, then the substance that gave them:

stoichiometry N (MAST1:14-3-3η) [1]: 0.5 | stoichiometry N (MAST1:14-3-3η) [2]: 0.5
Substance: MAST1^DK (copurified with 14-3-3η) (from UniProt Q9R1L5 1-1570) (domain or fragment)

stoichiometry N (MAST1:14-3-3η) [3]: 0.5 | stoichiometry N (MAST1:14-3-3η) [4]: 0.5
Substance: MAST1^D p-S90 (from UniProt Q9R1L5 1-1570) (domain or fragment)

binding against the reference (14-3-3η (endogenous); reference: S161A single mutant (S90 intact)): weaker
Substance: MAST1 MAST1DKP (from UniProt Q9R1L5) S90A S161A
